Data on one substance can be found in paper PMC2998070.

The assay concerns the target mouse VMS1-Flag-HA (mouse) (UniProt Q80UU1). In words: co-IP.

Where only a bound is given, the exact number is not on record here.

VCP, sequence (Q01853 whole entry): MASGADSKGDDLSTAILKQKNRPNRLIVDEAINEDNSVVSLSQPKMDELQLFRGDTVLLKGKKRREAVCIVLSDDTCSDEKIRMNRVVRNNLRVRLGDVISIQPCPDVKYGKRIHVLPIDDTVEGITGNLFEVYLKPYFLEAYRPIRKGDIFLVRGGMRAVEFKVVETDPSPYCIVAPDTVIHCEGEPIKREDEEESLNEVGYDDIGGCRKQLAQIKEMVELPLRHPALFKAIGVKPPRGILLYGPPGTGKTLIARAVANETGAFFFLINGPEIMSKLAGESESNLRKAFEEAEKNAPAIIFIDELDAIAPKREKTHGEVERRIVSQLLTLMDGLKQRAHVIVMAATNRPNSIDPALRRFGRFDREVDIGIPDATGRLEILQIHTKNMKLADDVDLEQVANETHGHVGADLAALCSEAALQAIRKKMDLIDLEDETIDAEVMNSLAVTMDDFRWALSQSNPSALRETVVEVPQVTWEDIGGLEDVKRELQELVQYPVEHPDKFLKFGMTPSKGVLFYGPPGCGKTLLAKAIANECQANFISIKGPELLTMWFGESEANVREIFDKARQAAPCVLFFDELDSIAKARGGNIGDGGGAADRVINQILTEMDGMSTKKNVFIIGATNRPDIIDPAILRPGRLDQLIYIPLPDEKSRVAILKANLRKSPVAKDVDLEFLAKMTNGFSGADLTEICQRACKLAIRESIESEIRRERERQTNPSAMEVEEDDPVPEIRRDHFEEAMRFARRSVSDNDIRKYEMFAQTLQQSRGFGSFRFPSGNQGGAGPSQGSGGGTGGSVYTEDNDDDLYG
UniProt Q80UU1, sequence (Q80UU1 whole entry): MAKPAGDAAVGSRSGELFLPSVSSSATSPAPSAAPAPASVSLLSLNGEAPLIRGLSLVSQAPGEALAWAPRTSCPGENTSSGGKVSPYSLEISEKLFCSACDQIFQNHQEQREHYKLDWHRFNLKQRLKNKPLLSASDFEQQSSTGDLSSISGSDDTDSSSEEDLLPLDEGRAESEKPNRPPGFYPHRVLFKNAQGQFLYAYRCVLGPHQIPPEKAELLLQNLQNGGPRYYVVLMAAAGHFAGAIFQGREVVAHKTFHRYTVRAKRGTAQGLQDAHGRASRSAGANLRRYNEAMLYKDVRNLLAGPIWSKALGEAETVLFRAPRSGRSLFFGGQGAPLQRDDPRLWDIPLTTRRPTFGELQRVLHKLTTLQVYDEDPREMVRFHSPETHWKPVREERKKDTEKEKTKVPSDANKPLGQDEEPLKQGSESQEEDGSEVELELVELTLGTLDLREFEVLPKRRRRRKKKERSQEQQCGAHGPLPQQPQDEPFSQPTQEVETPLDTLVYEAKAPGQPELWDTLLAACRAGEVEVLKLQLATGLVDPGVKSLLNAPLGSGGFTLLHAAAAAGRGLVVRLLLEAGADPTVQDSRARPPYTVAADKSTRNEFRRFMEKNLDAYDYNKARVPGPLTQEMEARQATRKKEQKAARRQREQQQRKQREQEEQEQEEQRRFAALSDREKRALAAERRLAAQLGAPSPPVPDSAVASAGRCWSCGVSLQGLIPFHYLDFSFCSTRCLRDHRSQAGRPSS

For the substance “VCP (from UniProt Q01853 1-806) (natural protein)”, the percent of the total cellular VCP associated with Vms1 is below 5%.
